Experimental data taken from patent publication US20120220489A1.

Columns and labels:
Test in all cases: RPA, competition: +free pErk1/2 peptide 10 nM
[1] = target: ERK1 (p42) active (phospho), human, Active Motif 31 152 (human) (UniProt P27361)
[2] = target: ERK1 (p44) inactive (GST tagged), human, Invitrogen PV 3312 (human) (UniProt P27361)
[3] = target: ERK1 (p44), human, Cell Signaling Technology 7416 (human) (UniProt P27361)
[4] = target: ERK2 (p42), human, Biosource PHO 0104 (human) (UniProt P28482)
[5] = target: Histone H3 recombinant protein, calf, Roche 11 034 758 001 (calf) (UniProt P68432)
[6] = target: Histone H3 recombinant protein, human, Upstate 14-494 (human) (UniProt P68431)
[7] = target: pErk1/2-BSA 2.7x peptide-protein conjugate (human; bovine)
[8] = target: pRb-BSA 1x peptide-protein conjugate (bovine)
Sequence of pRb-BSA 1x peptide-protein conjugate (bovine) (P02769 25-607 limits assumed): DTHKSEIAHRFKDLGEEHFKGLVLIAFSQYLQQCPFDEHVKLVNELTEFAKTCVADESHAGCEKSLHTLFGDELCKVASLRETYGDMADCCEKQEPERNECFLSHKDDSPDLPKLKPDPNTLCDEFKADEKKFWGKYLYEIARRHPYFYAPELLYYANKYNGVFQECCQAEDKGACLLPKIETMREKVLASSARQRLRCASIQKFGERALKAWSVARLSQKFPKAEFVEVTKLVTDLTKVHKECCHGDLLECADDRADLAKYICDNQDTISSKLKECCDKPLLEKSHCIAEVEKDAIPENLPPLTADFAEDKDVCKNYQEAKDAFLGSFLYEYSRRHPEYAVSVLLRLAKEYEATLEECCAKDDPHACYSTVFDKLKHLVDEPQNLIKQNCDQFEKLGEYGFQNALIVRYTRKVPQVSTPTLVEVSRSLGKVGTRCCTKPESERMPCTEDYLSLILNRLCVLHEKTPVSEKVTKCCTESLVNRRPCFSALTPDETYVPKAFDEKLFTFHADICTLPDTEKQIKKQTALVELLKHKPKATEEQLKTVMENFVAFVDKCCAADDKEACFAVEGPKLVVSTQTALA

Sequence of pErk1/2-BSA 2.7x peptide-protein conjugate (human; bovine) (P02769 25-607 limits assumed): as above
Sequence of UniProt P28482 (P28482 2-360 limits assumed): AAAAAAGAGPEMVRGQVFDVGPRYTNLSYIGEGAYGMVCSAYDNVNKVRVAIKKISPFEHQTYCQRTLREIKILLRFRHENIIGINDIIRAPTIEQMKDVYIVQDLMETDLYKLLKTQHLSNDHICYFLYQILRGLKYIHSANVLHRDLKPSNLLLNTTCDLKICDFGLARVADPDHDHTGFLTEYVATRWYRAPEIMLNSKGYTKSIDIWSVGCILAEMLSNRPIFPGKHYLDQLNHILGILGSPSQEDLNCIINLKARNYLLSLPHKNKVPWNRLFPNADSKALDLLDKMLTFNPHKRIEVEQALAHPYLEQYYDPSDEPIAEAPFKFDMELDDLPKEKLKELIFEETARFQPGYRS

maximum standard curve signal [1]: 0.01 RFI
maximum standard curve signal [2]: 0.01 RFI
maximum standard curve signal [3]: 0.01 RFI
maximum standard curve signal [4]: 0.01 RFI
maximum standard curve signal [5]: 0.01 RFI
maximum standard curve signal [6]: 0.01 RFI
maximum standard curve signal [7]: 1.05 RFI
maximum standard curve signal [8]: 0.01 RFI
Substance: p44/42 MAPK phospho (pERK1/2) Thr202/Tyr204 antibody, Cell Signaling Technology #9101
